Several values for one entry are separate records, joined by “and”; a condition that tells them apart may be missing. Identical values can stand only once. Like-named read-outs stand apart in the source and are kept apart here.
Columns and labels:
[1] = target: T1, HIS:SUMO:HD2 fusion protein (tick; entry name EVA4_RHISA, the …); assay: BLI
[2] = target: T1, HIS:SUMO:HD2 fusion protein; assay: BLI; remark: listed apart in the source

B1: CCL8 (ligand)
chain: QPDSVSIPITCCFNVINRKIPIQRLESYTRITNIQCPKEAVIFKTKRGKEVCADPKERWVRDSMKHLDQIFQNLKP
Kd [1]: 142 nM and 84.9 nM
Kd [2]: 142 nM
